# Patent publication US10556936B2, “Immunogenic proteins and fragments thereof from allergenic mites” (ALK-ABELLÓ A/S, priority 2016, dated 2020)
# B1: A022: house dust mite protein; SEQ ID NO: 19 (Der f), 20 (Der p), 317 (Blo t) (protein)
# chain: NWQMVWQDEFNGGHLDQNHWEFETGGGGWGNNELEFYTANRSQNVRVENGHLVIDVRVESYGGRDFTSGRIHSKQAWAYGKFEARARLPSGHHLWPAIWMFPRDSKYGPWAASGEIDIMEYRGDVHDKIEGTIHYGGQWPNNIYTGSGPHHFNVDFSKDFHNFAVEWDTKEIRWYMDGNKYFSVNIDRNMWSGKGNNPYNKNGQPFDQPFRWILNVAVGGNFFGPGPYVTPDQARHWQKHTMEIDYVRVYQWR
# B2: A023: house dust mite protein; SEQ ID NO: 23 (Der f), 24 (Der p) (protein)
# chain: DPVQQRPTLRGVTVRVGPFVKENNGKFEGFIPDLVQAISEKVGFDYTLYLSPDGRYGNVISDGNVTGMIGEVYNKKADFAAADLTMTEARENYITFTEPFMINQLAALIRREDAEGLNTLEDLAKAQETFPKRKRIVLGTLRNGATNYFLSKSDDPLAKKIYEQIKADDQSVVKSISEGVERVDKQGGYAFIMESASAEHEIANNCKLTMLLDWRNLFPRKYAFALPKDSPYLEHFNNAIKQLNSEGKIAELRRKYWANNCAENKTKDDKN
# B3: A024: house dust mite protein; SEQ ID NO: 11 (Der f), 12 (Der p), 318 (Blo t) (protein)
# chain: MSISAHGGGLVNGIAGMENKFTVFTSGKPVSGLTVAFEGPTKPEINFNSTKDGSVDVGYIPKAGGQYKIHIKYEGKEIVGSPFKCNISGDESTHRKLTEKVKVGGPNISTGKVNQDNQLTIDCKEAGITGGISFAMEGPAKVEVSFRNNNDGTITVIYKPPTPGDYKLHLKFNDIHLPGSPYPIVVSA
# B4: A025: house dust mite protein; SEQ ID NO: 17 (Der f), 18 (Der p) (protein)
# chain: QSLFVDYNDYSCGSSQNETNELIQEFKIFKKNINGNENFKKINDFIEKARLFRDNAAKQMLEIDQQLLTLNVIQISQRIKLENNKIQCEKLTKFSELLSMQLLAYEVGMFEFAEEIDPNIDFDRKMKNFLDETSRLFNLAEFEKLEKKFRNATSIEKLKNYIDGELVALNDYINEFLKDIIMSEFTVQSRYYLNFSIEDQVQIDSTLMTFSALKILLNDLKDYLEHLDN
# B5: Derf1: major house dust mite allergen, group 1, Dermatophagoides farinae; control (protein, UniProt P16311 99-321, looked up)
# Peptidase 1: TSACRINSVNVPSELDLRSLRTVTPIRMQGGCGSCWAFSGVAATESAYLAYRNTSLDLSEQELVDCASQHGCHGDTIPRGIEYIQQNGVVEERSYPYVAREQRCRRPNSQHYGISNYCQIYPPDVKQIREALTQTHTAIAVIIGIKDLRAFQHYDGRTIIQHDNGYQPNYHAVNIVGYGSTQGDDYWIVRNSWDTTWGDSGYGYFQAGNNLMMIEQYPYVVIM
# System: T cell lines obtained from HDM allergic individuals and non-allergics
# Assay: In vitro T cell proliferation test in T cell lines (Example 3)
# Type: cell-based, human
# Conditions: T cell lines from HDM allergic individuals (n=30); 0.5 or 2 ug/ml; 72 h
# Method in brief: (§1)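 Freshly isolated PBMC (5×10^6/ml) from mite-allergic patients or non-allergics cultured 5 days with test protein up to 10 ug/ml; IFN-gamma, IL-9, IL-10, IL-17, IL-31 in supernatants by multiplex immunoassay. T cell lines, raised 3 weeks on HDM extract, tested at 0.5 or 2 ug/ml protein in 72 h proliferation assay.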
row,Molecule,"% responders of in-vitro T cell proliferation test, Allergic"
1,B1,29%
2,B2,21%
3,B3,21%
4,B4,0%
5,B5,70%

# Same assay, conditions: T cell lines from non-allergics (n=8); 0.5 or 2 ug/ml; 72 h
row,Molecule,"% responders of in-vitro T cell proliferation test, Non-allergics"
1,B1,0%
2,B2,0%
3,B3,0%
4,B4,0%
5,B5,0%

# System: PBMC cells obtained from mite allergic patients and non-allergics
# Assay: Ex vivo stimulation of PBMC: cytokine production (IFN-gamma, IL-9, IL-10, IL-17, IL-31)
# Type: cell-based, human
# Conditions: HDM allergic individuals; IL-5
# Method in brief: as §1
row,Molecule,% HDM allergic individuals with cytokine production in ex-vivo T cell assay IL-5
1,B1,31%
2,B2,13%
3,B3,13%
4,B4,13%
5,B5,75%

# Same assay, conditions: HDM allergic individuals; IL-9
row,Molecule,% HDM allergic individuals with cytokine production in ex-vivo T cell assay IL-9
1,B1,6%
2,B2,13%
3,B3,6%
4,B4,6%
5,B5,19%

# Same assay, conditions: HDM allergic individuals; IL-10
row,Molecule,% HDM allergic individuals with cytokine production in ex-vivo T cell assay IL-10
1,B1,6%
2,B2,6%
3,B3,25%
4,B4,6%
5,B5,50%

# Same assay, conditions: HDM allergic individuals; IL-13
row,Molecule,% HDM allergic individuals with cytokine production in ex-vivo T cell assay IL-13
1,B1,13%
2,B2,13%
3,B3,6%
4,B4,13%
5,B5,56%

# Same assay, conditions: HDM allergic individuals; IL-17
row,Molecule,% HDM allergic individuals with cytokine production in ex-vivo T cell assay IL-17
1,B1,0%
2,B2,0%
3,B3,6%
4,B4,0%
5,B5,6%

# Same assay, conditions: HDM allergic individuals; IL-31
row,Molecule,% HDM allergic individuals with cytokine production in ex-vivo T cell assay IL-31
1,B1,0%
2,B2,0%
3,B3,0%
4,B4,0%
5,B5,0%

# Same assay, conditions: HDM allergic individuals; INF-g
row,Molecule,% HDM allergic individuals with cytokine production in ex-vivo T cell assay INF-g
1,B1,0%
2,B2,0%
3,B3,0%
4,B4,0%
5,B5,0%

# Same assay, conditions: non-allergic individuals; IL-5
row,Molecule,% non-allergic individuals with cytokine production in ex-vivo T cell assay IL-5
1,B1,0%
2,B2,0%
3,B3,0%
4,B4,0%
5,B5,0%

# Same assay, conditions: non-allergic individuals; IL-9
row,Molecule,% non-allergic individuals with cytokine production in ex-vivo T cell assay IL-9
1,B1,0%
2,B2,0%
3,B3,0%
4,B4,0%
5,B5,0%

# Same assay, conditions: non-allergic individuals; IL-10
row,Molecule,% non-allergic individuals with cytokine production in ex-vivo T cell assay IL-10
1,B1,0%
2,B2,0%
3,B3,17%
4,B4,0%
5,B5,33%

# Same assay, conditions: non-allergic individuals; IL-13
row,Molecule,% non-allergic individuals with cytokine production in ex-vivo T cell assay IL-13
1,B1,0%
2,B2,0%
3,B3,0%
4,B4,0%
5,B5,0%

# Same assay, conditions: non-allergic individuals; IL-17
row,Molecule,% non-allergic individuals with cytokine production in ex-vivo T cell assay IL-17
1,B1,0%
2,B2,0%
3,B3,0%
4,B4,0%
5,B5,17%

# Same assay, conditions: non-allergic individuals; IL-31
row,Molecule,% non-allergic individuals with cytokine production in ex-vivo T cell assay IL-31
1,B1,0%
2,B2,0%
3,B3,0%
4,B4,0%
5,B5,0%

# Same assay, conditions: non-allergic individuals; INF-g
row,Molecule,% non-allergic individuals with cytokine production in ex-vivo T cell assay INF-g
1,B1,17%
2,B2,0%
3,B3,0%
4,B4,0%
5,B5,0%

# System: basophils in whole blood from HDM allergic donors
# Assay: Basophil Activation Test (BAT)
# Type: cell-based, human
# Conditions: 1 ng/ml; blood from HDM allergic individuals (n=14)
# Method in brief: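 Basophil activation was read by flow cytometry as increased surface activation markers. The stimulus was a 1 h exposure of blood from 14 HDM-allergic donors to test proteins or major mite allergens at graded concentrations (e.g. 1–1000 ng/ml).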
row,Molecule,# of individuals of 14 with positive BAT test
1,B1,0
2,B2,1
3,B3,2
4,B4,1
5,B5,10

# Same assay, conditions: 10 ng/ml; blood from HDM allergic individuals (n=14)
row,Molecule,# of individuals of 14 with positive BAT test
1,B1,0
2,B2,1
3,B3,2
4,B4,1
5,B5,10

# Same assay, conditions: 100 ng/ml; blood from HDM allergic individuals (n=14)
row,Molecule,# of individuals of 14 with positive BAT test
1,B1,3
2,B2,1
3,B3,3
4,B4,1
5,B5,10

# Same assay, conditions: 1000 ng/ml; blood from HDM allergic individuals (n=14)
row,Molecule,# of individuals of 14 with positive BAT test
1,B1,5
2,B2,1
3,B3,3
4,B4,5
5,B5,10
